Test results reported in US20230140868A1, “COMPOSITIONS AND METHODS FOR TREATING CANCER” (Alpha Beta Holdings, LLC, priority 2020, published 2023).

Columns and labels:
[1] = tested on: αvβ3-expressing human lung xenograft tumors; experiment: αvβ3-expressing human lung xenograft with or without macrophage depletion; type: in vivo, nude mice
Excerpt: Successful depletion of macrophages by clodronate treatment was confirmed by staining tumor sections for the mouse macrophage marker F4/80.

[2] = tested on: αvβ3-expressing tumor cell lines; experiment: Macrophage-mediated killing: Fc dependence, ADCC vs ADCP vs direct killing; type: cell-based
Method: (§1) We used the isolated macrophages as effector cells in an antibody-dependent cellular-cytotoxicity (ADCC) assay. […] The ratio of dead target cells (PI-positive) to the total target cell population (CFSE-positive) was calculated as described (Bracher, 2007).
These findings were reported in FIGS. 3C-3D of Wettersten et al., Cancer Res. 79:5048 (2019).
Monoclonal antibodies can direct macrophages to induce tumor cell killing through two primary mechanisms, processes known as antibody-dependent cellular phagocytosis (ADCP) and antibody-dependent cellular cytotoxicity (ADCC). […] The lack of an ADCP response is consistent with high tumor cell expression of CD47, the “don't eat me” signal (Chao, 2012) that tumor cells often exploit to evade phagocytosis.

[3] = tested on: HCC827-R18 erlotinib-resistant tumor cells; experiment: Re-sensitization of erlotinib-resistant HCC827-R18 xenografts (FIG. 1); type: in vivo, nu/nu mice; details: LM609 i.p., 10 mg/kg, twice/week with erlotinib 6.25 mg/kg vs erlotinib alone
Method: HCC827-R18 and PC9-R4L erlotinib-resistant tumor cells generated as reported in Wettersten et al., Cancer Res. 79:5048 (2019), incorporated by reference herein in its entirety, were injected to form subcutaneous flank tumors in nu/nu recipient mice. […] Tumor dimensions were measured biweekly and volume calculated as […].
To generate erlotinib-resistant tumors […], HCC827 or PC9 human lung cancer cells (5×10^6 tumor cells in 100 μl of PBS) were subcutaneously injected to the right flank of female nu/nu mice (Charles River, 088, 8-10 weeks old) and tumors were measured with calipers twice per week. Animals with a tumor volume of 100-200 mm^3 were randomly assigned into groups treated with combinations of Captisol (oral, six times/week) or erlotinib (oral, 6.25 mg/kg, six times/week). For each of the individual tumors shown in Figure S3 of Wettersten et al., Cancer Res. 79:5048 (2019)}, vehicle-treated erlotinib sensitive (HCC827-P and PC9-P) and erlotinib-resistant (HCC827-R18 and PC9-R4L) cells were isolated. A gain of αvβ3 expression on the cell surface of the erlotinib-resistant tumor cells was confirmed by flow cytometry.

tumor cells [4] = experiment: In vitro ADCC with mouse NK cells; type: cell-based; details: effector: mouse NK cells
Method: as §1
To our surprise, LM609-mediated ADCC was not achieved with mouse NK cells or peripheral blood mononuclear cells (PBMCs) isolated from human blood, immune effector cell types to which antibodies are commonly engineered for optimal binding (Listinsky, 2013; Yu, 2017). In fact, NK cells are not correlated with β3 expression in tumors. These findings were reported in FIG. 3E of Wettersten et al., Cancer Res. 79:5048 (2019).

tumor cells [5] = experiment: In vitro ADCC with TAMs isolated from mouse Lewis lung carcinoma tumors; type: cell-based; details: effector: TAMs from LLC tumors grown in C57BL6 or athymic nude mice
Method: TAMs were isolated from tumor tissues as described (Kaneda, 2016). Tumors were dissociated in HBSS containing collagenase IV (Sigma, C5138), hyaluronidase (Sigma, H2654), dispase 11 (Roche, 04942078001), and DNase IV (Millipore, D5025) at 37° C. for 15 minutes. Cell suspensions were filtered through 70 μm cell strainers and washed with PBS. Single cell suspensions (10^6 cells/100 μl in 5% BSA in PBS) were incubated with Mouse BD Fc Block™ (BD Biosciences, 553142, 1:50) for 10 minutes at 4° C. and fluorescently labeled antibodies, CD11b (eBioscience, 17-0112-81, 1:100), and Ly-6G (eBioscience, 25-5931-81, 1:100), for one hour at 4° C. TAMs (CD11b-positive, Ly-6G-negative) were sorted.
as §1

tumor cells [6] = experiment: In vitro ADCC with mouse bone marrow derived macrophages (LM609); type: cell-based; details: effector: BMDM isolated from healthy mice
Method: Mouse bone marrow-derived macrophages (BMDMs) were aseptically harvested from euthanized 8-10 week-old female C57BL/6 mice by flushing leg bones with RPMI, filtering through 70 μm cell strainers, and incubating in Red Blood Cell Lysing Buffer Hybri-Max™ (Sigma, R7757). Cells were incubated with mouse M-CSF (Peprotech, 315-02) for 7 days before ADCC assays.
as §1

[7] = additional αvβ3-expressing tumor cell lines: lung, pancreas, brain, kidney cancer

B1: LM609: mouse monoclonal IgG1K antibody that recognizes human integrin αvβ3; SEQ ID NO:11 and 12 (antibody)
heavy: MNFGLRLIFLVLTLKGVKCEVQLVESGGGLVKPGGSLKLSCAASGFAFSSYDMSWVRQIPEKRLEWVAKVSSGGGSTYYLDTVQGRFTISRDNAKNTLYLQMSSLNSEDTAMYYCARHNYGSFAYWGQGTLVTVSAAKTTPPSVYPLAPGSAAQTNSMVTLGCLVKGYFPEPVTVTWNSGSLSSGVHTFPAVLQSDLYTLSSSVTVPSSTWPSETVTCNVAHPASSTKVDKKIVPRDCGCKPCICTVPEVSSVFIFPPKPKDVLTITLTPKVTCVVVDISKDDPEVQFSWFVDDVEVHTAQTQPREEQFNSTFRSVSELPIMHQDWLNGKEFKCRVNSAAFPAPIEKTISKTKGRPKAPQVYTIPPPKEQMAKDKVSLTCMITDFFPEDITVEWQWNGQPAENYKNTQPIMDTDGSYFVYSKLNVQKSNWEAGNTFTCSVLHEGLHNHHTEKSLSHSPGK
light: MVFTPQILGLMLFWISASRGDIVLTQSPATLSVTPGDSVSLSCRASQSISNHLHWYQQKSHESPRLLIKYASQSISGIPSRFSGSGSGTDFTLSINSVETEDFGMYFCQQSNSWPHTFGGGTKLEIKRADAAPTVSIFPPSSEQLTSGGASVVCFLNNFYPKDINVKWKIDGSERQNGVLNSWTDQDSKDSTYSMSSTLTLTKDEYERHNSYTCEATHKTSTSPIVKSFNRNEC
modifications: mAb LM609-mIgG1-kappa Heavy chain; mAb LM609-mIgG1-kappa Light chain
- anti-tumor effect after macrophage depletion ([1]; macrophage depletion using clodronate liposomes): completely blocked
- sensitivity of xenograft tumors to LM609 ([1]; reported in FIG. 2A of Wettersten et al.): highly sensitive
- ADCP ([2]; FIG. 3F of Wettersten et al.): not ADCP
- direct killing ([2]; FIG. 3F of Wettersten et al.): not ADCP or direct killing
- ADCP [2, 7]: not ADCP
- direct killing [2, 7]: not ADCP or direct killing
- macrophage-mediated ADCC [2, 7]: also observed
- macrophage-mediated killing ([2]; in the presence of an antibody blocking the Fc receptors CD16, CD32, and CD64): no macrophage-mediated killing
- macrophage ADCC ([2]; required integrin β3 expression, FIG. 3F of Wettersten et al.): induced macrophage ADCC
- re-sensitization of resistant tumors to erlotinib (tumor volume) [3]: able to re-sensitize resistant tumors to the growth inhibitory effects of erlotinib
- LM609-mediated ADCC (tumor cells [4]): not achieved
- ADCC activity (tumor cells [5]): robust ADCC activity
- ADCC (tumor cell killing) (tumor cells [6]): could also kill tumor cells
